Tests used:
[1] = target: T1, GIP130c with deletion of the N terminal 240-residues (human, UniProt Q4L180 241-1128); assay: yeast two-hybrid
T1 sequence: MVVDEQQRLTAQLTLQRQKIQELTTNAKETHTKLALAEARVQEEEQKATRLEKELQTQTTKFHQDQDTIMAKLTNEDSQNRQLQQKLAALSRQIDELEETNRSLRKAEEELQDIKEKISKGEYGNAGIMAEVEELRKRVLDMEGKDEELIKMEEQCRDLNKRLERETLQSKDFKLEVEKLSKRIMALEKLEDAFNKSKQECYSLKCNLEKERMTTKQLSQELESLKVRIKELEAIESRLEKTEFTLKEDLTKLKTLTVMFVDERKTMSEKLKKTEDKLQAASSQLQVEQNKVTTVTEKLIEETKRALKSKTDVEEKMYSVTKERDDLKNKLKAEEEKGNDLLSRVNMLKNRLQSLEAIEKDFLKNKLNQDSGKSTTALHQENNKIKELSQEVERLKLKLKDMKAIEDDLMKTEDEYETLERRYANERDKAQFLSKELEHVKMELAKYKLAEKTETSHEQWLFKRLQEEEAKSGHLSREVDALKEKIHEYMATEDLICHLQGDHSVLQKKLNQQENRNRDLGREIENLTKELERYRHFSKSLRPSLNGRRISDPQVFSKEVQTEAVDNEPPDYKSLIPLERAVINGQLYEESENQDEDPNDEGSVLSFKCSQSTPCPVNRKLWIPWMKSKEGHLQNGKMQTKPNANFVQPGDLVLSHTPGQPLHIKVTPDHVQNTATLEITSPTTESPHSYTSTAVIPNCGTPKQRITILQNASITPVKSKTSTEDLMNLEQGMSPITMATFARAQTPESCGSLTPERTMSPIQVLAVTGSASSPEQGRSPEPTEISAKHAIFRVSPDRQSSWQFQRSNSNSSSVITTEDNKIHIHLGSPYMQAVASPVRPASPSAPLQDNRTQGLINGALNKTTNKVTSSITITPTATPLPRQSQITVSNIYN

[2] = target: T2, GIP130b (human, UniProt Q4L180 1-1128); assay: yeast two-hybrid and three-hybrid (conclusion)
T2 construct: Full length; tested as GAL4 domain fusion in yeast two-hybrid
T2 sequence: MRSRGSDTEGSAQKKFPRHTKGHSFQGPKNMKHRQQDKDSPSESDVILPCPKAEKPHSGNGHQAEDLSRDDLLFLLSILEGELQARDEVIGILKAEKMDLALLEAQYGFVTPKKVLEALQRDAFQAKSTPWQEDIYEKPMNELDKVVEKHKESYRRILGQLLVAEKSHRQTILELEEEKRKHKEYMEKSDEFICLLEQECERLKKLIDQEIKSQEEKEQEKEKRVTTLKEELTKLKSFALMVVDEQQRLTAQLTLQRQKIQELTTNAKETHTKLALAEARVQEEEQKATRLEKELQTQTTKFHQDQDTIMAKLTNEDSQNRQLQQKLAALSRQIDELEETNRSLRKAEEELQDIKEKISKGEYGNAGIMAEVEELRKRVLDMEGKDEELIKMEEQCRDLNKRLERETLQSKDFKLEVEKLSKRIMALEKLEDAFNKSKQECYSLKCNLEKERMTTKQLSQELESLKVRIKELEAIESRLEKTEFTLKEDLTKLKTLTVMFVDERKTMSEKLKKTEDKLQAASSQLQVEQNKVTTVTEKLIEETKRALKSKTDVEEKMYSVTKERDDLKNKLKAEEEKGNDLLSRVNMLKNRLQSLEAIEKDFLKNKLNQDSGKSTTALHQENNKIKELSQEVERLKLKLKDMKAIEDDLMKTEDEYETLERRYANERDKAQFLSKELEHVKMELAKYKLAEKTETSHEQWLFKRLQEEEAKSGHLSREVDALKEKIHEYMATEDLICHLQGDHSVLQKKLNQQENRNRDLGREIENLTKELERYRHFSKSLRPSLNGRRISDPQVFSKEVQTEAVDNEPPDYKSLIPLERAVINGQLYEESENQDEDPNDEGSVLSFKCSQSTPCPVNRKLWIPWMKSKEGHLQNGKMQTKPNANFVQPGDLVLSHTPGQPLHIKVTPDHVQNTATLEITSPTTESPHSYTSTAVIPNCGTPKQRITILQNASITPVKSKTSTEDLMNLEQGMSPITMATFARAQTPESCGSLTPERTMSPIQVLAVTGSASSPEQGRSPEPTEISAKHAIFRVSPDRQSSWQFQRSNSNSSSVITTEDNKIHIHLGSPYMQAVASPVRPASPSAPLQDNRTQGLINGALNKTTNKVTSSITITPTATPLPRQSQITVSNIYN
Procedure: Accordingly, we have observed with a yeast three-hybrid system that GPBP expression efficiently impairs both I-20 and GIP90 aggregation, and that I-20 and GIP90 efficiently impair GPBP aggregation.
Deletion mutants were obtained using specific primers and PCR, followed by cloning of the resulting cDNAs in the pGBT9 and pGAD424 vectors. The assays were performed in SFY526 or HF7c Saccharomyces cerevisiae strains, with pGBT9 as GAL4 binding domain vector and pGAD424 as GAL4 activation domain vector, by the lift colony assay procedure. Briefly, the yeast cells were co-transformed with constructs of both binding domain and activation domain vectors, and the co-transformants were selected in medium deficient in both tryptophan and leucine. After five days of incubation at 30° C. the colonies were tested for the expression of β-galactosidase with X-Gal substrate (0.75 mg/ml). […] When the assays were performed with the HF7c strain, the interactions were assessed by the lift colony assay procedure and by growth in medium deficient in histidine, tryptophan and leucine. For yeast three-hybrid system, we used the pBRIDGE vector, which allows the conditional expression of a third protein apart from the usual GAL4 binding and activation domain-fusion proteins of the two-hybrid system. In this case, the expression of GPBP or I-20 or GIP90 was driven by Met25 promoter, active in absence of methionine. In these experiments, the transformed SFY526 cells were plated in medium deficient in tryptophan, leucine and methionine, and subjected to the colony lift assay after five days at 30° C. In the case of the strain HF7c the colonies grown in the cited plates were streaked on medium with the additional deficiency of histidine.

B1: Goodpasture antigen binding protein (GPBP) (enzyme, UniProt Q9Y5P4 1-624, looked up)
chain: MSDNQSWNSSGSEEDPETESGPPVERCGVLSKWTNYIHGWQDRWVVLKNNALSYYKSEDETEYGCRGSICLSKAVITPHDFDECRFDISVNDSVWYLRAQDPDHRQQWIDAIEQHKTESGYGSESSLRRHGSMVSLVSGASGYSATSTSSFKKGHSLREKLAEMETFRDILCRQVDTLQKYFDACADAVSKDELQRDKVVEDDEDDFPTTRSDGDFLHSTNGNKEKLFPHVTPKGINGIDFKGEAITFKATTAGILATLSHCIELMVKREDSWQKRLDKETEKKRRTEEAYKNAMTELKKKSHFGGPDYEEGPNSLINEEEFFDAVEAALDRQDKIEEQSQSEKVRLHWPTSLPSGDAFSSVGTHRFVQKPYSRSSSMSSIDLVSASDDVHRFSSQVEEMVQNHMTYSLQDVGGDANWQLVVEEGEMKVYRREVEENGIVLDPLKATHAVKGVTGHEVCNYFWNVDVRNDWETTIENFHVVETLADNAIIIYQTHKRVWPASQRDVLYLSVIRKIPALTENDPETWIVCNFSVDHDSAPLNNRCVRAKINVAMICQTLVSPPEGNQEISRDNILCKITYVANVNPGGWAPASVLRAVAKREYPKFLKRFTSYVQEKTAGKPILF
notes: Protein kinase; Fusion parts are not written as pieces
- binding result [1]: no binding
- binding result [2]: binds
